In a protein production outcome set (Wang et al. 2014) one finds protein production data, which are given here for 20 sequences.

The nature of this data set: label from the status in PepcDB records.
On to “AADQVLELVRPFLEELRNISQETAVLGKRQDGQVIYLDVALSHQPIRYHVQVGESRAAHTNSIGKAIFPMLDEKEQKALLAKANWRALTSRTIATREAFLRDMAQTKARGWSSNVGESVEDLAAVALPFQLASEWYAVSIVGPYERMERNWDAHVETLLQTGARLRQAIAVHEGQ”, for which the protein production result is given as “failed”.
Turning to “AALVRQHLDALPAASVPDLPAMARLLCTSVRTLKRRLQEEGTCYRQVLAGHRGARALELLGNPRLSLSQVAERLGFSDLSSFSQSFKRWFGVAPSVYRQERCG”, the protein production result was “failed”.
“AASEAEYGKVSKAWTLHADGSQEYRSSMELTLFTHTAMNSTYGESFIVYNPDFQTLKIHSSYTRQKDGTIVKTPDNAFVEVLPRFAADAPAYNQLKEMVVVHTGLELGATIYLDYSIITKPGYYPALDINERLQETSPVKECKVSISVPEGTPLACGLYGSPVKAVEESHDGIKEVHWTLRNIPASSREAFQPKNREASPHLVASTYPSGKAALATLDKRLKESQGYESKTFAQFLTDKSGNEQEKVNIIRDHILNNLSTCPIPMAMTGYTVRDIDTVLRSAYGTPLEIAQLLNVMLNAAGIPSEVLAVYPGHLDTDACGLAAIQTLAVKATVDGKDQYLSASPLTNRGGLDKVVSLSGTSIEIETTPIQIKESRSVAISADQAKDGFAICVLPAISAGIDSWGMSALNSKRSNLFELPSLIREEVTYTVTPAEGMKLQTSTQEQVISKPFGKVTRTITPRGNTIEVVRTIELNKQQFTPAEYSDVRSLIHEWTNPDNRVLLFSL”: the protein production entry was “not failed”.
For “AEIFTTLSCEPDIPNPPRIANRTKNSLTLQWKAPSDNGSKIQNFVLEWDEGKGNGEFCQCYMGSQKQFKITKLSPAMGCKFRLSARNDYGTSGFSEEVLYYTSGC”, the protein production entry is “not failed”.
To “AHAPQRISGLALFDPAGVEAPETSDLQHLLEQGKNPFLVRSRADFQHFYSLTMAAPPWVPEAVLAAIAERYQARRGQLARIFAELQASPPMEPELAKIQAPTLLLWGREDRLLHPSSAQVWAKGLPQAQVQLWEGIGHMPMVERPVRSARLYQQFLER” belongs “failed”; to “AIAAASLGEFEWCVATNTFRISPRLAKLSGIPEGELDSQGGNALYAYIHPDDREAVRANIDRQLAQSGRFTAEYRRTPLEHGGETWNSVAGVMLMDADGQPSRLIGVVQDITPRKL”, “failed”; to “AIADSKSHGWLIGANGTILETHDGGEHWEPRTFDFLRMDEEINYRFESISCYGNEGWIVGKPPILLHTQNGGKDWERIPLSSKLPGEPVLITALGPNRAELATTAGAIYTTDNGGKNWKALVKETIDATLNRTTSSGVTGASYYTGTVISITRDCNGYYLAISSRGNFYVTWHPGQEYWTPHPRDSSRRIQSMGFVQNDIHKGLWMANNGGFLGFSPPNPSLDTVSSIPFQRVDIRTGGYGILDVAFHQQKRNEVWASVGSGILYRSFDGGKHWEKDPWLDHLGSVLYRIKFVENSGFILGAKGTLLRYNG”, “not failed”.
In the case of “AIAKLPISTISPIHYMKSVVSSRETRNESNKSRRTFASTEWNKIIRETLYLETVYIPVDATSHSPDIIFKLQSPVEPKVLTVGVACKGRWKSEGIGWSDIIDEAKKFLDPVYDQVLSSAMDYHHCMLIIVSTKLSLNVSNELGNQSRCYSSGMFIGGDSFKVPDNCELVILCERDVQMLIDKEILNGLERAFCVSHNPTFWDFGLDLLDRIRNSFLSWQ” it was “failed”; in that of “AIANDDRATAFNALKNKTVCVQGDGNSRQFYHALVEILSNHSSAIPVNKNGNDFCNAPFAQCPQDTYYFDLVDKSDNLSVKLYWRWAPEFSDIECPMKVPSGFTPGSNYSFPSGPDTLSCDINIMDAGQWELFEKDANVTTAGYSQGVSNLSKCFSSDKSAKYFWIAAYALTPEQLQIHLPYNNTDVERINEVATQGLNSTACVLNGYDVTVNAFNDTKEATTDGIHYLGWINEQVVHLFFNAVTNSSAPTVPSSNVSVTSPNVQLGQVPNLNPSTTNSFLPVQTIVTVPSSSATSASSGLNFGGSSQGGGSGIPQL”, “failed”; in that of “AIASQFDPDKFKQEQKARWNQGARSTWTLWKQTQVEDTPAKFFLGLVPIRPGVKVLDLACGSGETSLQVAQLVSSHLPSDSKDAKIVCVDISEEMLRVLSQRAQELGLSSVVETCCEDAENINFGTHYFDMVMSQFGVMFLPHLPEDLANIRKMMKPGSLFCCVVWGEEKDCHIFYAARSVVSPPPPPPGTPVSYGTKEKVMEALRKAEFSDVKAVEFQVVHETKDAEEYITLMSGVNQWLEKSLGEKGSGPWQKLVEYCNNSYRTSRGTLQFPNVCVGITAIA”, “failed”.
In the case of “AIDVSAKSAIIIDGASGRVLYAKDEHQKRRIASITKIMTAVLAIESGKMDQTVTVSANAVRTEGSAIYLTEGQKVKLKDLVYGLMLRSGNDAAVAIAEHVGGSLDGFVYMMNQKAEQLGMKNTRFQNPHGLDDHENHYSTAYDMAILTKYAMKLKDYQKISGTKIYKAETMESVWKNKNKLLTMLYPYSTGGKTGYTKLAKRTLVSTASKDGIDLIAVTINDPNDWDDHMKMFNYVFEHYQTYLIAKKGDIPKLKGTFYESKAFIKRDITYLLTEEEKENVKINTTLLKPKKAWEKDASKIPDIVGHMEIMFNDATIAKVPIYYENERHQK” it was “not failed”; in that of “ALAETVSDFRLPNGLEVVVIEDHRAPVVTHMVWYRVGAADEPPGHSGIAHFLEHLMFKGTDEMSAGEFSATVEAQGGDDNAFTSWDYTAYFQRVAADRLDLMMKMEADRMRDLQMTEEDVRTERQVVLEERSQRTDSDPGAVFSEQSRAAAYLNHPYGIPIIGWRHEIEQLGREDAFSFYRTYYAPNNAILVVAGDVDPAEVRRMAEEHYGALEPTP”, “failed”.
As to “ALLQTPEFVEEFILDRTMNPAVREFGYEELKMIDPTCGSGHFVLGAFRRLVRLGGENQPGKDVHQRVRAALDSVHGVDINPFAVAIARFRLLVAAMAASGVRTLDEASKYEWPVHLAVGDSLIKSGSQQGSLFGESDDDLTDELAEFKYATEDVGEHPEMLRPGRYHVVVGNPPYITVKDKSLNALYRELYPACAGKYALSVPFAQRFFELAKREDAEGSGYGMVGQITANSFMKREFGTKLIEGYFGHAVELTEVIDTSGAYIPGHGTPTVILVGTRRGGDGR”, the protein production entry is “failed”.
Consider “ALRTELGLNVSGGGKTNQYYFSAGYLNDKGIALESGYERFNLRSNVTSQMTKWLRGGVNMSFAHSLQNYPVSSDTKTSNVINAGRLMNGFYPIYQMNEDGTYKLDSEGQRMYDFGSYRPSGSMANWNLPATLPNDKSERMKDEFSGRTFLEVTFIEGLKFKTSFNFDLINYNSLDYTNPKIGPAVNTGGSSSRENDRTFSWTWNNILTYDKTLGEHHFNLLAGQEAYSYRYDVLRASRSNMALPDFPELAVGSLVTGGTGYRVDYSLVGYFLNAQYDYQSKYFFSGSYRRDGSSRFAPETRWGNFWSVGASWRIDREDFMVAASDWLSALTLKVSYGAQGNDNLGTYYASSGLYSVVSNNGENALVSDRLATPKLKWETNLNFNAGIDFSLFNNRFSGSFDFFQRRSKDLLYSRPLAPSLGYNSVDENVGELKNTGVEIDLKGTLIHTRDFMWRLGLNLTHYKNVVTDLPLKDMP”, for which the protein production result is reported as “failed”.
Take “ANKKIDHREEAIELLKQDAKRILQLIKVQMDNLTLPQCPAYEEVLDTQMYGLSREINFATRLGLIEPEEGKKLISTLEKELSALHELSMSK”: the protein production entry is reported as “failed”.
In the case of “ANLISPVCDMGSAVTAPVYAAILAYRDAVTQILGAPADFAQMMADEAISQILDLMRNEGIKNMEDKLNPKALTGTADSMCFGPLADILPASLKVLEKHANENKCECGCSIKP” it was “failed”.
With “APEERDLTQEQTEKLLQFQDLTGIESMDQCRHTLEQHNWNIEAAVQDRLNEQEG”, the protein production result is reported as “not failed”.
In the case of “APHGPGLIYRQPNCDDPETEEAALVAIDYINQNLPWGYKHTLNQIDEVKVWPQQPSGELFEIEIDTLETTCHVLDPTPVARCSVR” it was “failed”; in that of “APLYIKVHEIDNTAIIVNDGGLPKGTVFSCGLVLEEDVPQGHKVALTDLNQGDEIVRYGEVIGFADETIKRGSWIREALVRMPAP”, “not failed”.
To “APTSSNDTGKTVVAVTACPTGIAHTYMAAEKLQETANKLGVRIKVETNGSRGVENRLTDKEIAEADGVIIAADVQVDMPRFDGKHLIAKPVAAGIHKPEELIKEAISGNAPVYKAESGSEATEST” belongs “not failed”.
